Assay results published in PMC7019173, “Stapled peptide targeting the CDK4/Cyclin D interface combined with Abemaciclib inhibits KRAS mutant lung cancer growth” (Theranostics, 2020).
Like-named read-outs stand apart in the source and are kept apart here. Where a SMILES comes first, the peptide text is derived from it. Bridges are numbered along the chain shown (N, C = ends). [ ]: non-standard residue; d: D form. S5 = C=CCCC[C@](C)(N)C(=O)O; TP2‑Rho = not defined here

Legend:
circular dichroism = conditions: 50 mM phosphate buffer; pH 7; 20 °C; 100 uM
[1] = Circular dichroism, determination of alpha helical content; assay type: physicochemical
Procedure: CD experiments were carried out using a Jasco J815 spectropolarimeter. Spectra were recorded with 100 μM of peptides dissolved in phosphate buffer 50 mM, pH 7, using a 1 mm pathlength CD cuvette at 20 °C, over a wavelength range of 190-260 nm. Continuous scanning mode was used, with a response of 1.0 s with 0.1 nm steps and a bandwidth of 2 nm. The signal to noise ratio was improved by acquiring each spectrum over an average of two scans. Baseline was corrected by subtracting the background from the sample spectrum.
Alpha helical content was determined using the following equation: % Helix = ([θ])obs * 100)/(-39500 * (1-2.57/n), where ([θ])obs is the mean residue ellipticity at 222 nm and n the number of peptide bonds.

[2] = biological target: C4D peptide derived from the alpha 5 helix of cyclin D1 (Homo sapiens, UniProt P24385); test: Fluorescence titration of TP2-Rho-labelled C4D peptide with CDK4 C helix-derived peptides; assay type: binding; conditions: 200 nM TP2-Rho labelled C4D peptide, PBS, 30 °C, average of n = 3 to 5 ± SD
Procedure: TP2-Rho-labelled peptides: peptides were labelled on a unique cysteine residue with a five-fold molar excess of TP2-Rho-maleimide overnight, and then purified from free dye on NAP-5 columns (GE Healthcare), as described previously.
(§1) Fluorescence titration assays were performed in 96-well plates in a thermostated chamber (Clariostar spectrofluorimeter, BMG) at 30 °C in 200 μL phosphate buffer saline using 200 nM fluorescently-labelled peptides or proteins. The fluorescence emission intensity of TP2-Rho-labelled peptides was recorded at 614 nm following excitation at 510 nm. The fluorescence emission intensity of mant-ATP was measured at […]. Data analysis was performed using the GraFit Software (Erathicus Ltd) and curve fitting was performed using a quadratic equation, as described previously. Experiments were performed in triplicate, and Kd values represent the average calculated for n = 3 to 5 experiments, together with standard deviation.

A549 cells = test: cells; assay type: cell-based, human; conditions: 48 hours, crystal violet, at least two independent experiments (n=4/experiment) ± SD, Grafit; read-out: IC50 A549 cell proliferation
Procedure: Non-small cell lung cancer A549, H358 and PC9 cell lines used in this study. Cell culture media, serum and antibiotics were purchased from Life Technologies. All cell lines were cultured in RPMI + Glutamax supplemented with 10% FCS, 100 units/mL penicillin (G sodium salt) and 100 µg/mL streptomycin at 37 °C in an atmosphere containing 5% CO2. […] Stock solutions of drugs were prepared in DMSO and freshly diluted in PBS to the desired concentration prior to use, then added onto unsynchronized cells cultured to subconfluency (60-70%), which were then further incubated for 24, 48 or 72 h. Cell proliferation was determined by crystal violet assay following treatment with drugs. Cells were washed with PBS, fixed with 3.7% formaldehyde for 10 min and then incubated with 0.1% crystal violet dye for 30 min. After rinsing, crystals were dissolved in 10% acetic acid and viability was determined by measuring absorbance at 595 nm.

[3] = set-up: species or system mice; conditions: mouse, in vivo
Procedure: Five weeks after the inoculation of H358-Luc cells, when bioluminescent orthotopic tumours were detected, nude mice were randomly divided into 6 groups. Mice were treated with vehicle (control, n = 14), Abemaciclib (n = 10), or P2-short administered intravenously (n = 10) or intrapulmonary (n = 10), or treated with a combination of Abemaciclib and P2-short (intravenous administration of P2-short, n = 10; intrapulmonary administration of P2-short, n = 10). Mice were daily orally treated for three weeks with 10 mg/kg Abemaciclib. P2-short was either administered via the tail vein three times a week for three weeks under anesthesia (isoflurane/air 4% for induction and 1.5% thereafter) with 200 μL at 0.9 mg/kg, or administered intrapulmonary two times a week for three weeks under anesthesia with 50 μL at 0.45 mg/kg. Intrapulmonary administration of P2-short was performed using a catheter connected to a FMJ-250-high-pressure syringe (Penn-Centur, Inc) and introduced into the trachea of the animals using a dedicated laryngoscope. Mice were observed and weighed three times a week. Tumour growth was followed by in vivo bioluminescence imaging (IVIS Kinetic). After 3 weeks, mice were sacrificed, and blood samples were collected by cardiac puncture for biochemistry analysis ([…]). Lungs were collected for immunohistochemistry analyses. […]

[4] = set-up: species or system mice; conditions: mouse, in vivo, iv
[5] = biological target: TP2-Rho-labelled CDK4 C helix peptide (unstapled) (human); test: other fluorescence titration; 200 nM TP2-Rho-labelled peptide titrated with GST-cyclins or GST; 96-well plates, 30 °C, 200 μL phosphate buffer saline; quadratic fit; average Kd of n = 3 to 5 experiments
CDK4/cyclin D1 = biological target: T1, CDK4/cyclin D1 (Homo sapiens, UniProt P11802); test: Fluorescence titration of mant-ATP with CDK4/cyclin D1 with or without P2short; assay type: binding; conditions: 200 nM mant-ATP
T1 construct: GST (N); made in house; host or cells: E. coli
Procedure: Recombinant GST-CDK4 and GST-cyclin D1 were expressed in E. coli by IPTG induction and purified by FPLC chromatography as described previously.
as §1

GST-cyclin Y = biological target: T2, GST-cyclin Y (UniProt Q8ND76 1-341); test: other fluorescence titration; 200 nM TP2-Rho-labelled peptide titrated with GST-cyclins or GST; 96-well plates, 30 °C, 200 μL phosphate buffer saline; quadratic fit; average Kd of n = 3 to 5 experiments; conditions: both partners purified
T2 construct: cyclin Y; source: E. coli BL21, purified (GSTrap HP, desalting column)

GST-cyclin A = GST-cyclin A (UniProt P20248 1-432); test: as above; conditions: both partners purified
GST-cyclin D1 = biological target: T3, GST-cyclin D1 (UniProt P24385 1-295); test: as above; conditions: both partners purified
T3 construct: cyclin D1; also called recombinant cyclin; source: E. coli, IPTG induction, purified by FPLC chromatography

GST-cyclin E = GST-cyclin E (UniProt P24864 1-410); test: as above; conditions: both partners purified

T1 sequence (P11802 whole entry): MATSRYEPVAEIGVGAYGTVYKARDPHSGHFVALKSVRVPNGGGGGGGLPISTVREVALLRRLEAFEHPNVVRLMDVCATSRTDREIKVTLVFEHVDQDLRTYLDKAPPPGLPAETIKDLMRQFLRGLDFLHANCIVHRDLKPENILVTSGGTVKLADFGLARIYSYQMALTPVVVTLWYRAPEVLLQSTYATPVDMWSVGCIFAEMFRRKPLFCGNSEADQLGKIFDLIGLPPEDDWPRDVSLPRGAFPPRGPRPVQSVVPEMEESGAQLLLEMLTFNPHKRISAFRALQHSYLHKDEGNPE
T1 sequence (P24385 whole entry partner): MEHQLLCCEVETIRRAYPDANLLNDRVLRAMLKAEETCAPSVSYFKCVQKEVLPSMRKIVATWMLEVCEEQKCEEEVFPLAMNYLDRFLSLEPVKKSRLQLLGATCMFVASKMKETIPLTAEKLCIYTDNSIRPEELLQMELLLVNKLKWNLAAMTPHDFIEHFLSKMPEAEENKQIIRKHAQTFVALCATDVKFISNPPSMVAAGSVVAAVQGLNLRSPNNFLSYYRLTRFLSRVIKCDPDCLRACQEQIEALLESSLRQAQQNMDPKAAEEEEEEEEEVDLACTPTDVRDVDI
T2 sequence (Q8ND76 whole entry): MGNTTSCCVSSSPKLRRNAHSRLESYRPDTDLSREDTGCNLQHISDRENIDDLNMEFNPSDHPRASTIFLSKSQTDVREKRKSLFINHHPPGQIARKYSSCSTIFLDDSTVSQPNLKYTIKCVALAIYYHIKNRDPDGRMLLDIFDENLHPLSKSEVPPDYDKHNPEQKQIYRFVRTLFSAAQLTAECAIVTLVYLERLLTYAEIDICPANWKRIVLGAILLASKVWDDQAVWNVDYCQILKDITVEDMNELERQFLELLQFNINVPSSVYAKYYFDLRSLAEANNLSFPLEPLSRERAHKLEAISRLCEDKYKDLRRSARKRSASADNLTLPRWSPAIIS
T3 sequence (P24385 whole entry): as the sequence (P24385 whole entry partner) above

CC(=O)N[C@@H](CS)C(=O)N[C@@H](C)C(=O)N1CCC[C@H]1C(=O)N[C@@H](C)C(=O)N[C@@H](CO)C(=O)N[C@H](C(=O)N[C@@H](C)C(=O)N[C@@H](C)C(=O)N[C@@]1(C)CCCC=CCCC[C@@](C)(C(=O)N[C@@H](C)C(=O)N[C@@H](CCCNC(=N)N)C(=O)N[C@@H](CC(C)C)C(N)=O)NC(=O)[C@H](CC(C)C)NC(=O)[C@H](C)NC(=O)[C@H](CCCCN)NC1=O)[C@@H](C)O (Ac-CAPASTAA[S5]KAL[S5]ARL-NH2; staple 9-13)
helicity (circular dichroism): 34%

CC[C@H](C)[C@H](NC(=O)[C@@H]1CCCN1C(=O)[C@H](CC(C)C)NC(C)=O)C(=O)N[C@@H](CO)C(=O)N[C@H](C(=O)N[C@H](C(=O)N[C@@H](CCCNC(=N)N)C(=O)N[C@@H](CCC(=O)O)C(=O)N[C@H](C(=O)N[C@@H](C)C(=O)N[C@@H](CC(C)C)C(=O)N[C@@H](CC(C)C)C(=O)N[C@@H](CCCNC(=N)N)C(=O)N[C@@H](CCCNC(=N)N)C(=O)N[C@@H](CC(C)C)C(N)=O)C(C)C)C(C)C)[C@@H](C)O [CDK4 C peptide short] (Ac-LPISTVREVALLRRL-NH2)
helicity (circular dichroism): 14% | % helix (alpha helical content) ([1]; CD, 100 μM peptide in phosphate buffer 50 mM, pH 7, 20 °C, from mean residue ellipticity at 222 nm): 14% | conformation in solution (CD) ([1]; phosphate buffer): disordered in solution

CC[C@H](C)[C@H](NC(=O)[C@@H]1CCCN1C(=O)[C@H](CC(C)C)NC(=O)CNC(C)=O)C(=O)N[C@@]1(C)CCCC=CCCC[C@@](C)(C(=O)N[C@H](C(=O)N[C@@H](C)C(=O)N[C@@H](CC(C)C)C(=O)N[C@@H](CC(C)C)C(=O)N[C@@H](CCCNC(=N)N)C(=O)N[C@@H](CCCNC(=N)N)C(=O)N[C@@H](CC(C)C)C(=O)N[C@@H](CCC(=O)O)C(=O)N[C@@H](C)C(=O)N[C@@H](Cc2ccccc2)C(=O)N[C@@H](CCC(=O)O)C(N)=O)C(C)C)NC(=O)[C@H](CCCNC(=N)N)NC(=O)[C@H](C(C)C)NC(=O)[C@H]([C@@H](C)O)NC1=O [P1] (Ac-GLPI[S5]TVR[S5]VALLRRLEAFE-NH2; staple 5-9)
helicity (circular dichroism): 16% | Kd [2]: 140 ± 77 nM

CC[C@H](C)[C@H](NC(=O)[C@@H]1CCCN1C(=O)[C@H](CC(C)C)NC(=O)CNC(C)=O)C(=O)N[C@@H](CO)C(=O)N[C@H](C(=O)N[C@H](C(=O)N[C@@H](CCCNC(=N)N)C(=O)N[C@@]1(C)CCCC=CCCC[C@@](C)(C(=O)N[C@@H](CCCNC(=N)N)C(=O)N[C@@H](CCCNC(=N)N)C(=O)N[C@@H](CC(C)C)C(=O)N[C@@H](CCC(=O)O)C(=O)N[C@@H](C)C(=O)N[C@@H](Cc2ccccc2)C(=O)N[C@@H](CCC(=O)O)C(N)=O)NC(=O)[C@H](CC(C)C)NC(=O)[C@H](C)NC(=O)[C@H](C(C)C)NC1=O)C(C)C)[C@@H](C)O [P2] (Ac-GLPISTVR[S5]VAL[S5]RRLEAFE-NH2; staple 9-13)
helicity (circular dichroism): 55% | Kd [2]: 245 ± 84 nM

CC[C@H](C)[C@H](NC(=O)[C@@H]1CCCN1C(=O)[C@H](CC(C)C)NC(=O)[C@H](C)N)C(=O)N[C@@H](CO)C(=O)N[C@H](C(=O)N[C@H](C(=O)N[C@@H](CCCNC(=N)N)C(=O)N[C@@]1(C)CCCC=CCCC[C@@](C)(C(=O)N[C@@H](CCCNC(=N)N)C(=O)N[C@@H](CCCNC(=N)N)C(=O)N[C@@H](CC(C)C)C(N)=O)NC(=O)[C@H](CC(C)C)NC(=O)[C@H](C)NC(=O)[C@H](C(C)C)NC1=O)C(C)C)[C@@H](C)O [P2shortA] (H-ALPISTVR[S5]VAL[S5]RRL-NH2; staple 9-13)
IC50 (A549 cells): 10800 ± 260 nM | helicity (circular dichroism): 74% | lung damage by HE staining [3]: did not reveal any lung damage | blood distribution half-life [4]: 0.4 h | blood elimination half-life [4]: 39 h

CC[C@H](C)[C@H](NC(=O)[C@@H]1CCCN1C(=O)[C@H](CC(C)C)NC(=O)[C@H](CS)NC(C)=O)C(=O)N[C@@H](CO)C(=O)N[C@H](C(=O)N[C@H](C(=O)N[C@@H](CCCNC(=N)N)C(=O)N[C@@]1(C)CCCC=CCCC[C@@](C)(C(=O)N[C@@H](CCCNC(=N)N)C(=O)N[C@@H](CCCNC(=N)N)C(=O)N[C@@H](CC(C)C)C(N)=O)NC(=O)[C@H](CC(C)C)NC(=O)[C@H](C)NC(=O)[C@H](C(C)C)NC1=O)C(C)C)[C@@H](C)O [P2short] (Ac-CLPISTVR[S5]VAL[S5]RRL-NH2; staple 9-13)
helicity (circular dichroism): 77% | Kd [2]: 56 ± 19 nM

CC[C@H](C)[C@H](NC(=O)[C@@H]1CCCN1C(=O)[C@H](CC(C)C)NC(=O)CNC(C)=O)C(=O)N[C@@]1(C)CCCC=CCCC[C@@](C)(C(=O)N[C@H](C(=O)N[C@@H](C)C(=O)N[C@@H](CC(C)C)C(=O)N[C@@]2(C)CCCC=CCCC[C@@](C)(C(=O)N[C@@H](C)C(=O)N[C@@H](Cc3ccccc3)C(=O)N[C@@H](CCC(=O)O)C(N)=O)NC(=O)[C@H](CC(C)C)NC(=O)[C@H](CCCNC(=N)N)NC(=O)[C@H](CCCNC(=N)N)NC2=O)C(C)C)NC(=O)[C@H](CCCNC(=N)N)NC(=O)[C@H](C(C)C)NC(=O)[C@H]([C@@H](C)O)NC1=O [P4] (Ac-GLPI[S5]TVR[S5]VAL[S5]RRL[S5]AFE-NH2; staple 5-9, 13-17)
helicity (circular dichroism): 26% | Kd [2]: 109 ± 29 nM

GST-cyclin D1 (from UniProt P24385 1-295) (natural protein)
Kd [5]: 43 nM

mant-ATP
Kd (CDK4/cyclin D1; P2short 2-fold excess, read-out: Kd of mant-ATP for CDK4/cyclin D1 in the presence of P2short): 5 ± 2 nM | Kd (CDK4/cyclin D1; no peptide, read-out: Kd of mant-ATP for CDK4/cyclin D1 complex alone): 27 ± 13 nM

B1: TP2-Rho-labelled P2short stapled peptide (peptide)
chain: Ac-C(TP2‑Rho)GLPISTVR[S5]VAL[S5]RRL-NH2
modifications: staple 10-14; reading uncertain
Kd (GST-cyclin Y): 47 nM | Kd (GST-cyclin A): 25 nM | Kd (GST-cyclin D1): 12 nM | Kd (GST-cyclin E): 10 nM
